Test system: Escherichia coli TOP10
Test: shrunken log2 fold change of peptide-encoding DNA abundance (4.5 h post-induction vs induction); higher = less antimicrobial activity (less host growth inhibition)
Conditions: time post-induction: 4.5 h; library: site-saturation at positions 5, 18, 19, 20
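Note: peptides expressed intracellularly from a pBAD plasmid library in pooled LB shake-flask culture, induced with 0.3% L-arabinose, DNA abundance read by NGS, three biological replicates, DESeq2 with apeglm shrinkage.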

| Sequence | shrunken log2 fold change |
| --- | --- |
| RRIRRRPPRLPRPRPRPICVPRP | 0.0261 |
| RRIRERPPRLPRPRPRPAEEPRP | -0.175 |
| RRIRSRPPRLPRPRPRPGNAPRP | 0.119 |
| RRIRVRPPRLPRPRPRPQDAPRP | -0.443 |
| RRIRKRPPRLPRPRPRPAQPPRP | 0.764 |
| RRIRKRPPRLPRPRPRPMLYPRP | -0.26 |
| RRIRLRPPRLPRPRPRPKWEPRP | -0.00197 |
| RRIRGRPPRLPRPRPRPSPFPRP | 0.168 |
| RRIRRRPPRLPRPRPRPMNAPRP | 0.15 |
| RRIRTRPPRLPRPRPRPAYDPRP | -0.251 |
| RRIRFRPPRLPRPRPRPCNDPRP | -0.122 |
| RRIRTRPPRLPRPRPRPNMEPRP | 0.343 |
| RRIRHRPPRLPRPRPRPDMLPRP | -0.481 |
| RRIRMRPPRLPRPRPRPMSKPRP | 0.0165 |
| RRIRYRPPRLPRPRPRPQTLPRP | -0.088 |
| RRIRCRPPRLPRPRPRPSPYPRP | -0.302 |
| RRIRHRPPRLPRPRPRPFGWPRP | 0.0661 |
| RRIRPRPPRLPRPRPRPDARPRP | 0.58 |
| RRIRGRPPRLPRPRPRPQLHPRP | 0.231 |
| RRIRMRPPRLPRPRPRPLEYPRP | 0.0611 |
| RRIRSRPPRLPRPRPRPFDTPRP | -0.201 |
| RRIRKRPPRLPRPRPRPGSYPRP | -0.00588 |
| RRIRGRPPRLPRPRPRPTNHPRP | 0.169 |
| RRIRWRPPRLPRPRPRPCFKPRP | 0.0478 |
| RRIRMRPPRLPRPRPRPLASPRP | 1.34 |

| Sequence | shrunken log2 fold change |
| --- | --- |
| RRIRWRPPRLPRPRPRPSCMPRP | 0.11 |
| RRIRWRPPRLPRPRPRPHDMPRP | -0.202 |
| RRIRRRPPRLPRPRPRPKPEPRP | 0.489 |
| RRIRLRPPRLPRPRPRPPVHPRP | 0.0348 |
| RRIRPRPPRLPRPRPRPMQHPRP | -0.0486 |
| RRIRFRPPRLPRPRPRPDCNPRP | -0.179 |
| RRIRARPPRLPRPRPRPWHKPRP | 0.0323 |
| RRIRCRPPRLPRPRPRPMKWPRP | 0.0655 |
| RRIRSRPPRLPRPRPRPDQAPRP | -0.107 |
| RRIRMRPPRLPRPRPRPQGRPRP | 0.113 |
| RRIRCRPPRLPRPRPRPQNIPRP | -0.237 |
| RRIRPRPPRLPRPRPRPRGTPRP | 0.0776 |
| RRIRMRPPRLPRPRPRPDYTPRP | -0.0182 |
| RRIRPRPPRLPRPRPRPWWRPRP | 0.14 |
| RRIRPRPPRLPRPRPRPSSHPRP | -0.417 |
| RRIRFRPPRLPRPRPRPGRMPRP | 0.0574 |
| RRIRDRPPRLPRPRPRPDSEPRP | -0.0121 |
| RRIRSRPPRLPRPRPRPYEGPRP | -0.213 |
| RRIRLRPPRLPRPRPRPHPSPRP | -0.0856 |
| RRIRTRPPRLPRPRPRPQIRPRP | -0.312 |
| RRIRHRPPRLPRPRPRPLWIPRP | -0.505 |
| RRIRSRPPRLPRPRPRPEGYPRP | -0.0595 |
| RRIRCRPPRLPRPRPRPFLQPRP | 1.41 |
| RRIRVRPPRLPRPRPRPKDYPRP | -0.366 |
| RRIRARPPRLPRPRPRPLIDPRP | 0.647 |

| Sequence | shrunken log2 fold change |
| --- | --- |
| RRIRNRPPRLPRPRPRPPGMPRP | -0.138 |
| RRIRERPPRLPRPRPRPQSKPRP | -0.769 |
| RRIRRRPPRLPRPRPRPGMSPRP | 0.226 |
| RRIRHRPPRLPRPRPRPDYFPRP | 0.0294 |
| RRIRERPPRLPRPRPRPWSEPRP | -0.398 |
| RRIRNRPPRLPRPRPRPNCCPRP | -0.124 |
| RRIRVRPPRLPRPRPRPFPEPRP | -0.24 |
| RRIRPRPPRLPRPRPRPSGWPRP | 0.57 |
| RRIRRRPPRLPRPRPRPDSAPRP | 0.288 |
| RRIRRRPPRLPRPRPRPETQPRP | 0.164 |
| RRIRWRPPRLPRPRPRPNWGPRP | 0.105 |
| RRIRQRPPRLPRPRPRPTANPRP | 0.197 |
| RRIRDRPPRLPRPRPRPDVYPRP | -0.00822 |
| RRIRKRPPRLPRPRPRPEFHPRP | 0.131 |
| RRIRVRPPRLPRPRPRPREVPRP | 0.089 |
| RRIRGRPPRLPRPRPRPFDYPRP | -0.145 |
| RRIRFRPPRLPRPRPRPCTIPRP | -0.15 |
| RRIRERPPRLPRPRPRPNFVPRP | 0.0109 |
| RRIRLRPPRLPRPRPRPTSCPRP | 0.0575 |
| RRIRVRPPRLPRPRPRPQTTPRP | 0.213 |
| RRIRCRPPRLPRPRPRPWWQPRP | 0.0101 |
| RRIRRRPPRLPRPRPRPKCDPRP | 0.0319 |
| RRIRFRPPRLPRPRPRPQCNPRP | -0.531 |
| RRIRVRPPRLPRPRPRPHVSPRP | 0.108 |
| RRIRTRPPRLPRPRPRPSEVPRP | 0.0146 |

| Sequence | shrunken log2 fold change |
| --- | --- |
| RRIRCRPPRLPRPRPRPPHFPRP | 0.872 |
| RRIRHRPPRLPRPRPRPHTAPRP | -0.337 |
| RRIRRRPPRLPRPRPRPGPSPRP | 0.442 |
| RRIRHRPPRLPRPRPRPDLYPRP | -0.243 |
| RRIRPRPPRLPRPRPRPKAMPRP | 0.000243 |
| RRIRPRPPRLPRPRPRPFPCPRP | -0.0101 |
| RRIRKRPPRLPRPRPRPGPAPRP | 1.05 |
| RRIRMRPPRLPRPRPRPEFTPRP | 0.101 |
| RRIRRRPPRLPRPRPRPELIPRP | 0.0314 |
| RRIRIRPPRLPRPRPRPRTTPRP | -0.25 |
| RRIRSRPPRLPRPRPRPKQTPRP | -0.159 |
| RRIRARPPRLPRPRPRPNLSPRP | -0.0536 |
| RRIRNRPPRLPRPRPRPRIEPRP | -0.117 |
| RRIRLRPPRLPRPRPRPRDEPRP | 0.162 |
| RRIRHRPPRLPRPRPRPLKAPRP | -0.364 |
| RRIRVRPPRLPRPRPRPVVHPRP | -0.0292 |
| RRIRMRPPRLPRPRPRPHVMPRP | -0.192 |
| RRIRTRPPRLPRPRPRPPEFPRP | -0.231 |
| RRIRPRPPRLPRPRPRPNPGPRP | 0.0588 |
| RRIRGRPPRLPRPRPRPNPQPRP | 0.0794 |
| RRIRFRPPRLPRPRPRPSPWPRP | 1.82 |
| RRIRHRPPRLPRPRPRPNDCPRP | 0.000576 |
| RRIRYRPPRLPRPRPRPWFYPRP | -1.48 |
| RRIRRRPPRLPRPRPRPYRYPRP | 0.0464 |
| RRIRNRPPRLPRPRPRPSKEPRP | -0.0243 |

| Sequence | shrunken log2 fold change |
| --- | --- |
| RRIRYRPPRLPRPRPRPQHDPRP | -1.4 |
| RRIRERPPRLPRPRPRPEFSPRP | -0.178 |
| RRIRTRPPRLPRPRPRPQRIPRP | -0.131 |
| RRIRWRPPRLPRPRPRPWKHPRP | 0.0264 |
| RRIRQRPPRLPRPRPRPHEYPRP | 0.0128 |
| RRIRRRPPRLPRPRPRPGCYPRP | 0.17 |
| RRIRTRPPRLPRPRPRPRHIPRP | -0.158 |
| RRIRDRPPRLPRPRPRPGGQPRP | 0.211 |
| RRIRRRPPRLPRPRPRPASFPRP | 0.309 |
| RRIRIRPPRLPRPRPRPSTWPRP | -0.481 |
| RRIRSRPPRLPRPRPRPQNGPRP | -0.535 |
| RRIRIRPPRLPRPRPRPPDWPRP | 0.286 |
| RRIRQRPPRLPRPRPRPASHPRP | 0.189 |
| RRIRPRPPRLPRPRPRPIENPRP | -0.414 |
| RRIRPRPPRLPRPRPRPYVAPRP | -0.465 |
| RRIRMRPPRLPRPRPRPNSEPRP | 0.128 |
| RRIRIRPPRLPRPRPRPNWLPRP | -0.0339 |
| RRIRYRPPRLPRPRPRPKEHPRP | -0.366 |
| RRIRDRPPRLPRPRPRPYKWPRP | -0.595 |
| RRIRERPPRLPRPRPRPTDDPRP | -0.00106 |
| RRIRGRPPRLPRPRPRPMADPRP | 0.173 |
| RRIRYRPPRLPRPRPRPYGPPRP | -0.143 |
| RRIRRRPPRLPRPRPRPCGYPRP | 0.0658 |
| RRIRWRPPRLPRPRPRPDNEPRP | 0.403 |
| RRIRKRPPRLPRPRPRPRFEPRP | 0.43 |

— the supplement of paper PMC9112550, “Optimization of the antimicrobial peptide Bac7 by deep mutational scanning” (BMC Biology, 2022)
